B1: DnaJ homolog subfamily C member 3 (Mus musculus), Q91YW3 (parent)
chain: MVAPGSVGSRLGAVFPFLLVLVDLQYEGAECGVNADVEKHLELGKKLLAAGQLADALSQFHAAVDGDPDNYIAYYRRATVFLAMGKSKAALPDLTKVIALKMDFTAARLQRGHLLLKQGKLDEAEDDFKKVLKSNPSEQEEKEAESQLVKADEMQRLRSQALDAFDGADYTAAITFLDKILEVCVWDAELRELRAECFIKEGEPRKAISDLKAASKLKSDNTEAFYKISTLYYQLGDHELSLSEVRECLKLDQDHKRCFAHYKQVKKLNKLIESAEELIRDGRYTDATSKYESVMKTEPSVAEYTVRSKERICHCFSKDEKPVEAIRICSEVLQMEPDNVNALKDRAEAYLIEEMYDEAIQDYEAAQEHNENDQQIREGLEKAQRLLKQSQKRDYYKILGVKRNAKKQEIIKAYRKLALQWHPDNFQNEEEKKKAEKKFIDIAAAKEVLSDPEMRKKFDDGEDPLDAESQQGGGGNPFHRSWNSWQGFNPFSSGGPFRFKFHFN

Variants of: B1
Conditions: with bip_human HSPA5, P11021
Sequence of bip_human HSPA5, P11021 (P11021 whole entry): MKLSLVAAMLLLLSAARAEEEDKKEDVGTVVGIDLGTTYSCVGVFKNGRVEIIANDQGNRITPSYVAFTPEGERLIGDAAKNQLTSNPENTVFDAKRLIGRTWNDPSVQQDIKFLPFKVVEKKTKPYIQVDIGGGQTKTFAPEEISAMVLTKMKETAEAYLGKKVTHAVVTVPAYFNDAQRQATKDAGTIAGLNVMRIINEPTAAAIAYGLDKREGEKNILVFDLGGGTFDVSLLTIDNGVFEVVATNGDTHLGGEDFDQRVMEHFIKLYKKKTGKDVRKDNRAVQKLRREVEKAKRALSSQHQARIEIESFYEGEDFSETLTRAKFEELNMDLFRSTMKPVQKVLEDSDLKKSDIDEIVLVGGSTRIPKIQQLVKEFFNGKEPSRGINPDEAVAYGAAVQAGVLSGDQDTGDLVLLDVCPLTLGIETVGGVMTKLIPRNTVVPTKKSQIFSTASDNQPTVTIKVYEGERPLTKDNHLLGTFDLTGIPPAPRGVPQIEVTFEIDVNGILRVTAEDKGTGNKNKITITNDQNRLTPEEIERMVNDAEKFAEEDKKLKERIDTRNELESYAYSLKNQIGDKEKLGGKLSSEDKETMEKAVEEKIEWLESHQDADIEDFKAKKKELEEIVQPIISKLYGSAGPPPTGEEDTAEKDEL

effect of a mutation on the interaction	Variant
disrupting interaction	H422Q

Reference: IntAct's records for PubMed 18923430
